# Biological target: acetylcholine receptor (Homo sapiens, UniProt P02708)
# Test: SPR binding affinity (RU) of optimized 5mer/6mer/7mer peptides, Examples 6-7
# Conditions: SPR, Resonance Units; peptides tested at 10 μM; 6mer-2 Top sequence
# How it was run: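 Binding response (RU) to the human acetylcholine receptor was measured by SPR. Each 5mer or 6mer library peptide was applied at 10 μM, with sequences drawn from top and bottom amino-acid combinations.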
# acetylcholine receptor, sequence (P02708 21-457): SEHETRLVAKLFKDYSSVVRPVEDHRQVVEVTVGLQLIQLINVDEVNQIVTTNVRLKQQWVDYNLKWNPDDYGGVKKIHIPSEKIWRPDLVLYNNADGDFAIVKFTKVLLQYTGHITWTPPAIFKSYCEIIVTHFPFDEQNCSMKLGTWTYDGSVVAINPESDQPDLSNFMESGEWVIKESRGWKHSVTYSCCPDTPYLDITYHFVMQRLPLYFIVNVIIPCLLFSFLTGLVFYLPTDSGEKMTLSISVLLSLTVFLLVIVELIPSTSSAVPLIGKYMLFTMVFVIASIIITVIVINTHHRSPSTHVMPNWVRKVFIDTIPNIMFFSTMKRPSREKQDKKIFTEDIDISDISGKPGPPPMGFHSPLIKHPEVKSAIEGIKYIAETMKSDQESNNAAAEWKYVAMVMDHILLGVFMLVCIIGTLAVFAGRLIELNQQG
row,Substance,Binding affinity [Ru]
1,6mer-2-403 (KGVLRK),123
2,6mer-2-404 (RVLSKR),121
3,6mer-2-405 (KGYRKK),137
4,6mer-2-406 (KGIYRR),139
5,6mer-2-407 (KQVSKR),122
6,6mer-2-408 (KQIYRR),139
7,6mer-2-409 (KRRRKR),139
8,6mer-2-410 (KRFRKK),153
9,6mer-2-411 (RSRQKK),121
10,6mer-2-412 (KRFLKK),139
11,6mer-2-413 (RLILKR),136
12,6mer-2-414 (KWRQKK),135
13,6mer-2-415 (KGRCKK),149
14,6mer-2-416 (RWRLRR),131
15,6mer-2-417 (RWVYKK),151
16,6mer-2-418 (RVQYKK),121
17,6mer-2-419 (RSRYKK),154
18,6mer-2-420 (RRQYRK),128
19,6mer-2-421 (KVICRK),124
20,6mer-2-422 (RLITRR),154
21,6mer-2-423 (RLQYRK),154
22,6mer-2-424 (RLYCKK),139
23,6mer-2-425 (KLQTKK),145
24,6mer-2-426 (KGQRRK),141
25,6mer-2-427 (RLQRRR),147

row,Substance,Binding affinity [Ru]
1,6mer-2-428 (KVFLKK),142
2,6mer-2-429 (RWRQRK),123
3,6mer-2-430 (RWFRRR),139
4,6mer-2-431 (KLILKR),135
5,6mer-2-432 (KVVRKR),148
6,6mer-2-433 (RWIQKR),139
7,6mer-2-434 (RVIRRK),154
8,6mer-2-435 (RWVYKR),154
9,6mer-2-436 (KVLYKR),148
10,6mer-2-437 (KQVCKK),121
11,6mer-2-438 (RLLCRK),131
12,6mer-2-439 (KWFSKR),153
13,6mer-2-440 (KQLSKK),153
14,6mer-2-441 (KSQRKR),139
15,6mer-2-442 (RLVQKR),139
16,6mer-2-443 (RQYCRR),122
17,6mer-2-444 (RQRLKK),141
18,6mer-2-445 (RLVCKR),145
19,6mer-2-446 (RQLQKK),153
20,6mer-2-447 (RVYTKK),139
21,6mer-2-448 (RSFRRR),128
22,6mer-2-449 (RGRCRR),154
23,6mer-2-450 (RQRYRK),123
24,6mer-2-451 (RGRCKK),148
25,6mer-2-452 (KGLYKR),146

row,Substance,Binding affinity [Ru]
1,6mer-2-453 (RLVRKK),141
2,6mer-2-454 (RSVQKK),133
3,6mer-2-455 (RWYSKR),135
4,6mer-2-456 (KSVTKR),147
5,6mer-2-457 (RRVYKR),146
6,6mer-2-458 (RRFQRR),122
7,6mer-2-459 (KLFSRK),139
8,6mer-2-460 (RSQCRK),139
9,6mer-2-461 (KSVCRR),149
10,6mer-2-462 (KQICKR),145
11,6mer-2-463 (KLLTRR),124
12,6mer-2-464 (KSFRKK),135
13,6mer-2-465 (KGVSKR),122
14,6mer-2-466 (RLLTRR),142
15,6mer-2-467 (KQYSRR),142
16,6mer-2-468 (RSFSKR),133
17,6mer-2-469 (RLRTKK),153
18,6mer-2-470 (RLRRRK),153
19,6mer-2-471 (KWISRR),136
20,6mer-2-472 (RSRLRR),148
21,6mer-2-473 (RGRLRK),131
22,6mer-2-474 (RWQQRR),128
23,6mer-2-475 (KRFCRR),139
24,6mer-2-476 (KGIRKK),148

# Same assay, conditions: SPR, Resonance Units; peptides tested at 10 μM; 6mer-2 Top sequence (Table 12)
row,Substance,Binding affinity [Ru]
1,6mer-2-318 (RGIQKK),145
2,6mer-2-319 (RSRQRK),137
3,6mer-2-320 (RQYRRK),148
4,6mer-2-321 (KLVSRK),139
5,6mer-2-322 (RRYSRR),148
6,6mer-2-323 (KVLLRK),145
7,6mer-2-324 (KLQSRK),139
8,6mer-2-325 (RVFSRK),142
9,6mer-2-326 (RGFYKK),142
10,6mer-2-327 (KGLRKR),153
11,6mer-2-328 (KRYQRK),131
12,6mer-2-329 (RVYTKR),142
13,6mer-2-330 (KQLRKK),139
14,6mer-2-331 (RWVSKK),148
15,6mer-2-332 (RRQYKK),145
16,6mer-2-333 (KRFRRK),139
17,6mer-2-334 (KVILRR),146
18,6mer-2-335 (KWRSRR),153
19,6mer-2-336 (KLITKR),135
20,6mer-2-337 (KQFQKK),142
21,6mer-2-338 (RSVQKR),145
22,6mer-2-339 (KQVYKK),151

row,Substance,Binding affinity [Ru]
1,6mer-2-340 (RRLTRR),122
2,6mer-2-341 (KVVTKR),144
3,6mer-2-342 (KRYRKK),145
4,6mer-2-343 (KQISKK),146
5,6mer-2-344 (KGIRRK),148
6,6mer-2-345 (KSRQKK),148
7,6mer-2-346 (KRFSKK),153
8,6mer-2-347 (RRYSKK),148
9,6mer-2-348 (KSQLRR),153
10,6mer-2-349 (RRLSRR),137
11,6mer-2-350 (RGQTRK),148
12,6mer-2-351 (KLYTKR),135
13,6mer-2-352 (RWFYRR),137
14,6mer-2-353 (RLQTKK),137
15,6mer-2-354 (RWISKK),135
16,6mer-2-355 (RGIRKK),124
17,6mer-2-356 (RLLQRR),145
18,6mer-2-357 (RGQRKK),151
19,6mer-2-358 (RQIYKK),154
20,6mer-2-359 (RLFCKK),136
21,6mer-2-360 (KGVRRR),141
22,6mer-2-361 (RSFQRR),153

row,Substance,Binding affinity [Ru]
1,6mer-2-362 (RGRQKR),154
2,6mer-2-363 (KSIYRK),147
3,6mer-2-364 (KVFTKK),154
4,6mer-2-365 (RWRYRR),121
5,6mer-2-366 (KQYYRR),142
6,6mer-2-367 (RWRSRR),142
7,6mer-2-368 (RLRTRR),142
8,6mer-2-369 (KVVRRR),145
9,6mer-2-370 (KSLLRR),142
10,6mer-2-371 (KRLSRR),148
11,6mer-2-372 (KLVQRR),141
12,6mer-2-373 (KLIYRK),139
13,6mer-2-374 (KRQLKK),125
14,6mer-2-375 (RVVQKK),131
15,6mer-2-376 (KQQCKR),141
16,6mer-2-377 (RRYCRR),142
17,6mer-2-378 (KRFQRK),131
18,6mer-2-379 (RGVQKR),127
19,6mer-2-380 (RLVYRK),141
20,6mer-2-381 (KVYRRR),139
21,6mer-2-382 (KSVSRR),148
22,6mer-2-383 (KLVRRK),128

row,Substance,Binding affinity [Ru]
1,6mer-2-384 (RSFQKK),142
2,6mer-2-385 (RGVCKR),154
3,6mer-2-386 (KWQSKR),136
4,6mer-2-387 (KWLCKK),146
5,6mer-2-388 (KRFQKK),139
6,6mer-2-389 (KSLYKK),153
7,6mer-2-390 (KWLRRR),145
8,6mer-2-391 (KQYQKR),141
9,6mer-2-392 (RQILKR),149
10,6mer-2-393 (RGLQRK),145
11,6mer-2-394 (KLVLKR),141
12,6mer-2-395 (KWRYRR),148
13,6mer-2-396 (KWLQRR),122
14,6mer-2-397 (RSIYRK),154
15,6mer-2-398 (RQQRRR),141
16,6mer-2-399 (RWLTRR),148
17,6mer-2-400 (RQIRRR),154
18,6mer-2-401 (RSILRK),153
19,6mer-2-402 (KRYSRR),145
